Data: patent US10202593B2, “Evolved sortases and uses thereof” (President and Fellows of Harvard College, priority 2013, dated 2019)
Where two headings read alike, the source gives them in different places.

How the values were obtained:
[1] = tested on: LPETG (Abz-LPETGK(Dnp)-CONH2); assay: In vitro sortase kinetics HPLC assay, LPETG substrate; format: biochemical; settings: substrate wt (LPETG)
Description: (§1) See below for details on sortase expression and purification, and on the synthesis of Abz-LPETGK(Dnp)-CONH2 (SEQ ID NO: 19). […] Reactions were initiated with the addition of enzyme and incubated at 22.5° C. for 3 to 20 minutes before quenching with 0.5 volumes of 1 M HCl. Five to ten nmol of peptide from the quenched reactions were injected onto an analytical reverse-phase Eclipse XDB-C18 HPLC column (4.6×150 mm, 5 μm, Agilent Technologies) and chromatographed using a gradient of 10 to 65% acetonitrile with 0.1% TFA in 0.1% aqueous TFA over 13 minutes. Retention times under these conditions for the Abz-LPETGK(Dnp)-CONH2 (SEQ ID NO: 19) substrate, the released GKDnp peptide, and the Abz-LPETGGG-COOH (SEQ ID NO: 20) product were 12.8, 10.4, and 9.1 min, respectively. To calculate the percent conversion, the ratio of the integrated areas of the Abz-LPETGGG-COOH (SEQ ID NO: 20) and Abz-LPETGK(Dnp)-CONH2 (SEQ ID NO: 19) peptide Abs220 peaks was compared to a standard curve generated by mixing the product and starting peptide in known ratios. To determine […] and Km, reaction rates were fit to the Michaelis-Menten equation using OriginPro 7.0 software. All kinetics values reported represent the average of at least three measurements. Percent conversion was also calculated by using the ratio of the integrated areas of the GK(Dnp)-CONH2 and Abz-LPETGK(Dnp)-CONH2 peptide Abs355 peaks were compared directly (Example 5). To determine kcat and Km, LPETG, reaction rates were fit to the Michaelis-Menten equation using Microsoft Excel using the Solver add-in. To determine Km,GGG and KH, reaction rates were fit to the modified Michaelis-Menten, for which KH is as defined when KH<<Km,GGG.
(§2) Assays to determine eSrtA, eSrtA(2A-9) and eSrtA(4S-9) specificity were performed by preparing 10 μM stocks of Abz-LXEXGK(Dnp) (SEQ ID NO: 75) peptides in 300 mM Tris pH 7.5, 150 mM NaCl, 5 mM CaCl2, 5% v/v DMSO, and 100 mM Gly-Gly-Gly-COOH (GGG). Reactions were performed by adding eSrtA(2A-9) to a final concentration of 450 nM, eSrtA(4S-9) to a final concentration of 115 nM or eSrtA to a final concentration of 47.5 nM and a final volume of 100 μL, then incubating at 22.5° C. for 15 minutes. Reactions were quenched by the addition of 0.2 volumes of 5 M HCl, then were injected onto an analytical reverse-phase Eclipse XDB-C18 HPLC column (4.6×150 mm, 5 μm, Agilent Technologies) and chromatographed using a gradient of 10 to 65% acetonitrile with 0.1% TFA in 0.1% aqueous TFA over 13 minutes. Retention times under these conditions for the Abz-LPETGK(Dnp)-CONH2 (SEQ ID NO: 19) substrate, the released GKDnp peptide, and the Abz-LPETGGG-COOH (SEQ ID NO: 20) product were 12.8, 10.4, and 9.1 min, respectively, while the remaining Abz-LXEXGK(Dnp)-CONH2 (SEQ ID NO: 74) substrates varied in retention time between 9 and 13 minutes. To calculate the percent conversion, the ratio of the integrated areas of the GK(Dnp)-CONH2 and Abz-LPETGK(Dnp)-CONH2 (SEQ ID NO: 19) peptide Abs355 peaks were compared directly. Subsequent determination of kcat/Km and KH were performed as described for in vitro SrtA characterization.
(§3) In each case, rate constants were determined by measuring enzyme velocity at eight different substrate concentrations by HPLC assay, then fit using nonlinear regression to the Michaelis-Menten equation, yielding kcat and Km. KH was calculated by measuring enzyme velocity at 1 mM target substrate and eight different GGG concentrations by HPLC assay, then fitting the resulting curves using nonlinear regression to the modified Michaelis-Menten equation.

[2] = tested on: LPESG (Abz-LPESGK(Dnp)-CONH2); assay: In vitro sortase kinetics HPLC assay, LPESG substrate; format: biochemical
Description: as §1, §2, §3

mouse tissues = assay: Tissue modification with GGG-Biotin (SA-568 fluorescence)
Description: FIG. 10 is a graph showing the relative increase in fluorescence of mouse tissues specifically labeled with GGG-Biotin (detected with SA-568) using a sortase recognizing the LPESG (SEQ ID NO: 3) sortase recognition motif.
Tissue section microarrays were purchased from the BioChain institute (Cat. Z7020001, Lot B508112) and deparaffinized by treatment with 2 changes Xylene for 9 minutes each, 1 change 1:1 Xylene:Ethanol for 3 minutes, 1 change 100% ethanol for 3 minutes, 1 change 90% ethanol for 3 minutes, 1 change 70% ethanol for 3 minutes, 1 change 70% ethanol+0.25% ammonia for 1 hour, 1 change 50% ethanol for 3 minutes, 1 change DI water for 5 minutes. Antigen retrieval was achieved by soaking in 10 mM Citrate pH 6 followed by microwave heating for 2 minutes, then let to rest for 8 minutes. Tissues were washed with 10 mg/mL freshly prepared Sodium borohydride in PBS for 30 minutes on ice, then washed twice with PBS for 3 minutes each.
Slides were blocked in 5% BSA/PBS for 1 hour at room temperature, then 0.001% (w/v) avidin in 5% BSA/PBS for 15 minutes, washed with 5% BSA/PBS, 0.001% (w/v) biotin in 5% BSA/PBS for 15 minutes, washed with 5% BSA/PBS and washed twice in TBS-BC (100 mM TBS, 500 mM NaCl, 0.5% BSA, 5 mM CaCl2) for three minutes. Slides were then treated with 20 uM Enzyme and 200 uM GGG-Biotin for 1 hour at room temperature, washed with 10 mM GGG in 5% BSA/PBS for 3 minutes, then washed twice with 5% BSA/PBS for 3 minutes. Slides were then treated with 2 mg/mL Sudan Black B in 70% EtOH for 30 minutes, washed three times with 5% BSA/PBS, incubated in 5% BSA/PBS+1:250 Streptavidin-568 for 30 minutes, washed 3 times with PBS, incubated with DAPI/PBS for 30 minutes and finally washed 3 times with PBS. Slides were dried, mounted and then visualized by confocal microscopy.
Tissue staining was performed as described previously, with biotin signal false colored in red and DAPI stain false colored in blue. In each case, total integrated biotin signal was computed for both negative control and SrtA+ samples, then background subtracted and used to calculate the total fluorescence enrichment shown in FIG. 10.

B1: 4S.6A: 5mut + N98D A104V A118S F122A K134G I182V E189V (protein)
chain: QAKPQIPKDKSKVAGYIEIPDADIKEPVYPGPATREQLDRGVSFVEENESLDDQNISISGHTAIDRPNYQFTNLGAAKKGSMVYFKVGNETRKYKMTSIRNVKPTAVEVLDEQKGKDKQLTLVTCDDYNVETGVWETRKIFVATEVK
- kcat, 10 mM GGG (Hz) ([1]; 10 mM GGG): 1.102 Hz
- Km ([1]; read-out: Km, LxExG): 1290 µM
- Khydrolysis ([2]; 1 mM 4S (LPESG) substrate): 179.3 µM
- kcat, 1 mM LxExG (Hz) ([2]; 1 mM 4S (LPESG) substrate, GGG varied): 1.931 Hz
- Km ([2]; 1 mM 4S (LPESG) substrate, read-out: Km, GGG): 4950 µM
- increase in kcat/Km for LPESG as compared to LPETG ([2]; FIG. 2): ~5 fold
- specificity (relative cat. Efficiency, fold) ([2]; ratio of kcat/Km between 4S (LPESG) and wt (LPETG) substrates): 11 fold
- kL/KL/KH ([2]; substrate 4S (LPESG)): 5.24E+07
- kHydrolysis (Hz) ([2]; substrate 4S (LPESG), 1 mM, GGG varied): 0.06696 Hz
- kcat, 10 mM GGG (Hz) ([2]; substrate 4S (LPESG), 10 mM GGG): 0.9537 Hz
- Km ([2]; substrate 4S (LPESG), read-out: Km, LxExG): 102 µM
- labeling of tissue with GGG-Biotin (mouse tissues; bladder tissue): specific labeling
- labeling of tissue with GGG-Biotin (mouse tissues; pancreas tissue): specific labeling
- labeling of tissue with GGG-Biotin (mouse tissues; prostate tissue): specific labeling
- labeling of tissue with GGG-Biotin (mouse tissues; small intestine tissue): specific labeling
- labeling of tissue with GGG-Biotin (mouse tissues; spleen tissue): specific labeling
- labeling of tissue with GGG-Biotin (mouse tissues; testis tissue): specific labeling
- labeling of tissue with GGG-Biotin (mouse tissues; uterus tissue): specific labeling
